Measured values reported in US9434716B2, “Antigen binding proteins” (Glaxo Group Limited, priority 2011, dated 2016).
Entries after “also recorded” stand apart in the source; their conditions may differ.

What was measured:
[1] = target: T1, human SAP (Homo sapiens, UniProt P02743); assay: Biacore kinetics, human SAP captured on immobilised O-phosphoethanolamine; type: binding; conditions: CM5 chip, calcium; bivalent analyte model; 25° C.; for comparison only, avidity effect
T1 construct: from tissue; host or cells: natural human SAP, purified
Protocol: O-phosphoethanolamine was immobilised on a Biacore CM5 chip by primary amine coupling in accordance with the manufacturer's instructions. Human SAP was then captured on the surface in the presence of calcium chloride, in order to replicate in the Biacore system in vitro, the precise orientation of SAP molecules bound to amyloid fibrils in vivo. Anti SAP antibodies were then passed over this surface at 256, 64, 16, 4, 1 nM and a binding sensorgrams obtained. Analysis was carried out at 25° C. using 4% BSA, 10 mM Tris, 140 mM NaCl, 2 mM CaCl2, 0.05% surfactant P20, 0.02% Na N3, pH 8.0 as running buffer. […] Data generated were double referenced with a buffer injection over the human SAP surface and analyzed using the bivalent analyte model in the Biacore T100 evaluation software.

[2] = test system: mice with systemic AA amyloidosis; assay: Low dose SAP-E and SAP-K in clearing systemic AA amyloid deposits (Example 17); type: in vivo, mouse; conditions: low doses
Protocol: AA amyloidosis was induced and confirmed in wild-type C57BL/6 mice as detailed in Example 10 above. After loading the amyloid deposits with human SAP as also detailed in Example 10, groups of mice (n=10 each) were treated with single doses of either 0.5 mg and 1 mg per mouse of the two different antibodies, or 6 repeated doses of 0.15 mg, given at 3 or 4 day intervals. […] All were killed on day 29 for estimation of amyloid load by Congo red staining.

[3] = target: T1, human SAP; assay: Western blotting and fragment epitope mapping (CNBr, chymotrypsin); type: binding
From the text: This is consistent with the kinetic stability and resistance to denaturation of SAP (Manning, M. and Colón, W. (2004) Biochemistry, 43: 11248-11254).
B, SDS-PAGE analysis of SAP cleaved with CNBr. […] These were precisely confirmed by mass spectrometry. […] C, SDS-PAGE analysis of SAP digested with chymotrypsin. Left panel: Coomassie blue stain; lane 1, untreated control SAP; lane 2, SAP after chymotrypsin digestion, showing the expected major fragments corresponding to residues 1-140 and 145-204. These were precisely confirmed by mass spectrometry. Right panel: Western blot with SAP-E showing intense staining of intact untreated SAP in lanes 1 (500 ng loaded) and 2 (100 ng), and also residual intact SAP in lanes 3 and 4 which contained the chymotrypsin digested SAP at different loadings. Very weak binding of SAP-E to the residue 1-140 fragment is seen only in lane 3 which was most heavily loaded. […] D, Sequence comparison between human SAP (h) and mouse SAP (m) for residues 136-147. Top panel, differences indicated above by residues shown in black in the murine sequence. Bottom panel, position of this extended loop with 140Y at its apex shown in white in the 3D subunit structure of human SAP. The different residues in the murine sequence are shown in black. The grey spheres represent the calcium atoms bound in the ligand binding pocket.

[4] = target: T2, human CRP (Homo sapiens, UniProt P02741); assay: Western blotting against CRP; type: binding; conditions: western blot, 500 ng and 100 ng loaded
T2 sequence (P02741 19-224): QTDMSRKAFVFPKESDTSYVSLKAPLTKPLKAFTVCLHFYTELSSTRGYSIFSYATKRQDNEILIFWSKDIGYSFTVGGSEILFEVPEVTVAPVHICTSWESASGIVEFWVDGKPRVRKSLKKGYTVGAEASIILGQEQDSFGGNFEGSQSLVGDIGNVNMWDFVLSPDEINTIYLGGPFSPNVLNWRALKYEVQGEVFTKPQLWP

[5] = target: T1, human SAP; assay: Immunoradiometric assay, human SAP captured by immobilised sheep polyclonal anti-human SAP antibody; type: binding; conditions: all levels of human SAP input; mean of 3 replicates
From the text: (§1) SAP-K was selected from among the 6 different, most avidly binding, mouse IgG2a monoclonals, derived by standard techniques from immunization with purified human SAP and a conventional fusion to produce hybridomas which were cloned by routine methods. […] This was the case regardless of whether the human SAP had been directly immobilised on plastic surfaces by non-specific adherence or by covalent attachment, or by the specific calcium dependent binding of SAP to immobilised ligands, whether amyloid fibrils or the small molecule ligand, phosphoethanolamine. SAP-K also bound well to directly immobilised SAP in the presence or absence of calcium, and if the SAP had previously been complexed with CPHPC and then covalently ‘fixed’ in the decameric SAP-CPHPC complex (Pepys, M. B. et al (2002) Targeted pharmacological depletion of serum amyloid P component for treatment of human amyloidosis. Nature, 417: 254-259; Kolstoe, S. E. et al (2009) Molecular dissection of Alzheimer's disease neuropathology by depletion of serum amyloid P component. Proc. Natl. Acad. Sci. USA, 106: 7619-7623). SAP-E also bound well to human SAP in all these different configurations.
Each point is the mean of 3 replicates.

[6] = target: T1, human SAP; assay: Biacore (BIAcoreX), human SAP covalently immobilised on the chip; type: binding; conditions: mean and SD of 3 replicate measurements
[7] = target: T1, human SAP; assay: Binding of mouse monoclonals to immobilised human SAP in vitro
From the text: SAP-E and SAP-K are from two groups of anti-SAP monoclonals, each group having been tested separately for their binding to human SAP in vitro.
as §1

[8] = target: T1, human SAP; assay: Competition ELISA with chimeric anti-SAP mAb; type: binding; conditions: human SAP coated at 1 μg/mL; purified murine mAb
From the text: A constant concentration of chimeric anti-SAP mAb was mixed with serial diluted (1:1) amounts of mouse anti-SAP mAbs. Plates were washed and the amount of chimeric antibody bound to the immobilised human SAP was detected using goat anti-human Kappa Light chain peroxidase conjugate (Sigma, A7164). The ELISA was developed using O-phenylenediamine dihydrochloride (OPD) peroxidase substrate (Sigma, P9187).

[9] = test system: mice with systemic AA amyloidosis; assay: SAP-E versus SAP-K in clearing systemic AA amyloid deposits (Example 16); type: in vivo, mouse; conditions: lower doses
Protocol: AA amyloidosis was induced and confirmed in wild-type C57BL/6 mice as detailed in Example 10 above. After loading the amyloid deposits with human SAP also detailed in Example 10, groups of mice were treated with 3 mg and 1 mg per mouse of the two different antibodies. […] All mice were bled for assay of circulating anti-SAP antibody at days 1, 5 and 15 after dosing with antibody, and all were killed on day 21 for estimation of amyloid load by Congo red staining. All sera were assayed for anti-SAP activity using a robust immunoradiometric assay standardised with purified SAP-E and SAP-K respectively, spiked at known concentrations into normal mouse serum.
Amyloid load was scored by four independent expert observers all blinded to the identity of each tissue examined. The scores of all observers were, as usual highly concordant and for statistical analysis, the total scores of all observers for both spleen and liver for each mouse were summed.

[10] = target: T3, native human SAP (Homo sapiens, UniProt P02743); assay: Double immunodiffusion in agarose gel; type: binding; conditions: isolated pure human SAP and whole human serum
T3 construct: against both isolated pure human SAP and whole human serum; from tissue; host or cells: whole human serum, and isolated pure human SAP
T3 sequence (P02743 20-223): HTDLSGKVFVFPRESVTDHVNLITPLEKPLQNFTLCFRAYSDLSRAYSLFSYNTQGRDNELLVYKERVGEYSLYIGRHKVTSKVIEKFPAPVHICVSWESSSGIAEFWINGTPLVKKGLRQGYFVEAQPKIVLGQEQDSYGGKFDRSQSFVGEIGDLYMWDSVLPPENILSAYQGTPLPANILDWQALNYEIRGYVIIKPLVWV

T1 sequence (P02743 20-223): as above

B1: SAP-E: mouse IgG2a monoclonal anti-human SAP antibody, VH SEQ ID NO:7, VL SEQ ID NO:9 (antibody, V domains shown)
VH: QASLQQSGTELVRSGASVKMSCKASGFTFATYNMHWIKQTPGQGLEWIGYIYPGDGNANYNQQFKGKATLTADTSSNTAYMQISSLTSEDSAVYFCARGDFDYDGGYYFDSWGQGTTLTVSS
VL: DIQMTQSPASLSASVGETVTITCRASENIYSYLAWYQQKQGRSPQLLVHNAKTLAEGVPSRVSGSGSGTHFSLKINGLQPEDFGNYYCQHHYGAPLTFGAGTKLELK
ka [1]: 31500 M⁻¹ s⁻¹ | kd [1]: 1.51e-08 s⁻¹ | potency in clearing amyloid, SAP-E compared with SAP-K [2]: again apparently more potent than SAP-K | binding to native human SAP in western blotting ([3]; after agarose gel electrophoresis in physiological buffers): bound | binding to human SAP in western blotting from reduced SDS-PAGE ([3]; denatured human SAP): only SAP-E bound | epitope recognised ([3]; residues of human SAP, CNBr and chymotrypsin fragments): region 140-158 | reaction with isolated pure human CRP [4]: did not react at all | binding to human SAP captured by sheep polyclonal anti-human SAP [5]: SAP-E bound better than SAP-K at all levels of human SAP input; also recorded: Substantially more SAP-E than SAP-K bound at all concentrations of human SAP offered | kd [6]: 6 ± 4 × 10^−5 sec^−1 | binding to immobilised human SAP ([7]; abundant immobilised SAP, coating solution 100 μg/ml): more binding of SAP-E than SAP-K | binding to human SAP in vitro ([7]; compared within the group of monoclonals): strongest binding to SAP, within their groups | competition with SAP-K chimera [8]: no competition | potency in clearing amyloid, SAP-E compared with SAP-K [9]: apparently more potent than SAP-K at the lower doses | binding to native human SAP (immunoprecipitation) [10]: bound apparently equally well to native human SAP
